Bridge positions count the residues as written; N and C are the ends. Square brackets hold non-standard residues; d marks the D form. Ends that are not written are not given here. Oic = O=C(O)[C@@H]1C[C@@H]2CCCC[C@@H]2N1; Hyp = O=C(O)[C@@H]1C[C@@H](O)CN1; NMeI = CC[C@H](C)[C@H](NC)C(=O)O; tBuAla = CC(C)(C)C[C@H](N)C(=O)O; Pen = CC(C)(S)[C@H](N)C(=O)O; Aib = CC(C)(N)C(=O)O; Sar = CNCC(=O)O
T1: recombinant human MASP1 active protease (amino acids 297-699, C-terminal His Tag) (human, UniProt P48740 297-699)
T1 sequence: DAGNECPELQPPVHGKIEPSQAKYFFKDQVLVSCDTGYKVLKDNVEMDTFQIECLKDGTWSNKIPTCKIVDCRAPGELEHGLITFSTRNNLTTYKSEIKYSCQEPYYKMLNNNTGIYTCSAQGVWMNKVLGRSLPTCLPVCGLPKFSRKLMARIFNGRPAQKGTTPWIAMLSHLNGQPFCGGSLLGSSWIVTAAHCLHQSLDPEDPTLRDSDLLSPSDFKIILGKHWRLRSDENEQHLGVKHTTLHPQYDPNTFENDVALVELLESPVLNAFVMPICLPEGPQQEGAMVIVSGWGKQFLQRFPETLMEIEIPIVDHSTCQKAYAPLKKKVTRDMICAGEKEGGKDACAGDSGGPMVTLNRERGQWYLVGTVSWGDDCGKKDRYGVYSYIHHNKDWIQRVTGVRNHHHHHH


How the values were obtained:
[1] = target: recombinant human MASP2 active protease (amino acids 297-686, C-terminal His Tag) (human, UniProt O00187 297-686); assay: cell-based or functional assay
Chain of recombinant human MASP2 active protease (amino acids 297-686, C-terminal His Tag) (O00187 other isoform, or with tags, fused parts or gaps limits assumed): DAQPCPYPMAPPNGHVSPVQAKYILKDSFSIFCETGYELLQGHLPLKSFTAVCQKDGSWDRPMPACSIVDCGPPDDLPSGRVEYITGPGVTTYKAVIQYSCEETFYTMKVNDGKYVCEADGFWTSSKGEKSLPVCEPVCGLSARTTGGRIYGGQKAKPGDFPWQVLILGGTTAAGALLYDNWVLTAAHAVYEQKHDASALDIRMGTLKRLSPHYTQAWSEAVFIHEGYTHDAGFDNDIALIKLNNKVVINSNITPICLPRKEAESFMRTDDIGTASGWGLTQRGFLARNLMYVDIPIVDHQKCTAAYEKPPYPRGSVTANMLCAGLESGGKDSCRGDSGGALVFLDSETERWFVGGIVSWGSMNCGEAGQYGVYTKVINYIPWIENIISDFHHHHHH

[2] = target: T1, recombinant human MASP1 active protease …; assay: cell-based or functional assay

Binder	human MASP2 IC50 [1] [nM]	human MASP1 IC50 [2] [nM]
PPICSRS[tBuAla]PPI[Pen]I-NH2 (disulfide 4-12; N-terminus assumed; SMILES CC[C@H](C)[C@H](NC(=O)[C@H]1NC(=O)[C@H]([C@@H](C)CC)NC(=O)[C@@H]2CCCN2C(=O)[C@@H]2CCCN2C(=O)[C@H](CC(C)(C)C)NC(=O)[C@H](CO)NC(=O)[C@H](CCCNC(=N)N)NC(=O)[C@H](CO)NC(=O)[C@@H](NC(=O)[C@@H](NC(=O)[C@@H]2CCCN2C(=O)[C@@H]2CCCN2)[C@@H](C)CC)CSSC1(C)C)C(N)=O) [Example 371: PPIC+SRS-((tBu)A)-PPI-(Pen)+I-NH2]	810	36
[Sar]ICSRSLP[Oic]I[Pen]IP-NH2 (disulfide 3-11; also: citrate salt) [Example 376: ((N-Me)G)-IC+SRSLP-(Oic)-I-(Pen)+IP-NH2 (Citrate)]	35	1.1
GICSRSL[Hyp]PICIPD-OH (disulfide 3-11; N-terminus assumed; SMILES CC[C@H](C)[C@H](NC(=O)CN)C(=O)N[C@H]1CSSC[C@@H](C(=O)N[C@H](C(=O)N2CCC[C@H]2C(=O)N[C@@H](CC(=O)O)C(=O)O)[C@@H](C)CC)NC(=O)[C@H]([C@@H](C)CC)NC(=O)[C@@H]2CCCN2C(=O)[C@@H]2C[C@@H](O)CN2C(=O)[C@H](CC(C)C)NC(=O)[C@H](CO)NC(=O)[C@H](CCCNC(=N)N)NC(=O)[C@H](CO)NC1=O) [Example 380: GIC+SRSL-(Hyp)-PIC+IPD-OH]	810	40
[Aib]ICSRSLPPICIPD-NH2 (disulfide 3-11; N-terminus assumed; SMILES CC[C@H](C)[C@@H]1NC(=O)[C@@H]2CCCN2C(=O)[C@@H]2CCCN2C(=O)[C@H](CC(C)C)NC(=O)[C@H](CO)NC(=O)[C@H](CCCNC(=N)N)NC(=O)[C@H](CO)NC(=O)[C@@H](NC(=O)[C@@H](NC(=O)C(C)(C)N)[C@@H](C)CC)CSSC[C@@H](C(=O)N[C@H](C(=O)N2CCC[C@H]2C(=O)N[C@@H](CC(=O)O)C(N)=O)[C@@H](C)CC)NC1=O) [Example 373: (Aib)-IC+SRSLPPIC+IPD-NH2]	450	37
ICSRSLP[Oic]I[Pen]IPQ-NH2 (disulfide 2-10; N-terminus assumed; SMILES CC[C@H](C)[C@H](N)C(=O)N[C@H]1CSSC(C)(C)[C@@H](C(=O)N[C@H](C(=O)N2CCC[C@H]2C(=O)N[C@@H](CCC(N)=O)C(N)=O)[C@@H](C)CC)NC(=O)[C@H]([C@@H](C)CC)NC(=O)[C@@H]2C[C@@H]3CCCC[C@@H]3N2C(=O)[C@@H]2CCCN2C(=O)[C@H](CC(C)C)NC(=O)[C@H](CO)NC(=O)[C@H](CCCNC(=N)N)NC(=O)[C@H](CO)NC1=O) [Example 377: IC+SRSLP-(Oic)-I-(Pen)+IPQ-NH2]	810	37
ICSRSLP[Oic]I[Pen]IPE-NH2 (disulfide 2-10; N-terminus assumed; SMILES CC[C@H](C)[C@H](N)C(=O)N[C@H]1CSSC(C)(C)[C@@H](C(=O)N[C@H](C(=O)N2CCC[C@H]2C(=O)N[C@@H](CCC(=O)O)C(N)=O)[C@@H](C)CC)NC(=O)[C@H]([C@@H](C)CC)NC(=O)[C@@H]2C[C@@H]3CCCC[C@@H]3N2C(=O)[C@@H]2CCCN2C(=O)[C@H](CC(C)C)NC(=O)[C@H](CO)NC(=O)[C@H](CCCNC(=N)N)NC(=O)[C@H](CO)NC1=O) [Example 372: IC+SRSLP-(Oic)-I-(Pen)+IPE-NH2]	660	36

Now from value to binder:

human MASP2 IC50 [1] [nM]	human MASP1 IC50 [2] [nM]	Binder
360	39	[NMeI]CSRS[tBuAla]PPI[Pen]IP-NH2 (disulfide 2-10; N-terminus assumed; SMILES CC[C@H](C)[C@H](NC)C(=O)N[C@H]1CSSC(C)(C)[C@@H](C(=O)N[C@H](C(=O)N2CCC[C@H]2C(N)=O)[C@@H](C)CC)NC(=O)[C@H]([C@@H](C)CC)NC(=O)[C@@H]2CCCN2C(=O)[C@@H]2CCCN2C(=O)[C@H](CC(C)(C)C)NC(=O)[C@H](CO)NC(=O)[C@H](CCCNC(=N)N)NC(=O)[C@H](CO)NC1=O) [Example 379: ((N-Me)I)-C+SRS-((tBu)A)-PPI-(Pen)+IP-NH2]
93.5	35	[dF]ICSRSLP[Oic]I[Pen]IP-NH2 (disulfide 3-11; N-terminus assumed; SMILES CC[C@H](C)[C@H](NC(=O)[C@H](N)Cc1ccccc1)C(=O)N[C@H]1CSSC(C)(C)[C@@H](C(=O)N[C@H](C(=O)N2CCC[C@H]2C(N)=O)[C@@H](C)CC)NC(=O)[C@H]([C@@H](C)CC)NC(=O)[C@@H]2C[C@@H]3CCCC[C@@H]3N2C(=O)[C@@H]2CCCN2C(=O)[C@H](CC(C)C)NC(=O)[C@H](CO)NC(=O)[C@H](CCCNC(=N)N)NC(=O)[C@H](CO)NC1=O) [Example 370: fIC+SRSLP-(Oic)-I-(Pen)+IP-NH2]
14000	37	AICSRSLPPIC[2‑Methyl‑D‑alloisoleucine]PD-NH2 (disulfide 3-11) [Example 374: AIC+SRSLPPIC+(2-Methyl-D-alloisoleucine)-PD-NH2]
1100	38	PPICSRS[tBuAla]PPI[Pen]IP-NH2 (disulfide 4-12; N-terminus assumed; SMILES CC[C@H](C)[C@H](NC(=O)[C@@H]1CCCN1C(=O)[C@@H]1CCCN1)C(=O)N[C@H]1CSSC(C)(C)[C@@H](C(=O)N[C@H](C(=O)N2CCC[C@H]2C(N)=O)[C@@H](C)CC)NC(=O)[C@H]([C@@H](C)CC)NC(=O)[C@@H]2CCCN2C(=O)[C@@H]2CCCN2C(=O)[C@H](CC(C)(C)C)NC(=O)[C@H](CO)NC(=O)[C@H](CCCNC(=N)N)NC(=O)[C@H](CO)NC1=O) [Example 378: PPIC+SRS-((tBu)A)-PPI-(Pen)+IP-NH2]
420	35	ICSRSLP[Oic]I[Pen]IPE-OH (disulfide 2-10; N-terminus assumed; SMILES CC[C@H](C)[C@H](N)C(=O)N[C@H]1CSSC(C)(C)[C@@H](C(=O)N[C@H](C(=O)N2CCC[C@H]2C(=O)N[C@@H](CCC(=O)O)C(=O)O)[C@@H](C)CC)NC(=O)[C@H]([C@@H](C)CC)NC(=O)[C@@H]2C[C@@H]3CCCC[C@@H]3N2C(=O)[C@@H]2CCCN2C(=O)[C@H](CC(C)C)NC(=O)[C@H](CO)NC(=O)[C@H](CCCNC(=N)N)NC(=O)[C@H](CO)NC1=O) [Example 369: IC+SRSLP-(Oic)-I-(Pen)+IPE-OH]
1200	35	ICSRSLP[Oic]I[Pen]I-OH (disulfide 2-10; N-terminus assumed; SMILES CC[C@H](C)[C@H](N)C(=O)N[C@H]1CSSC(C)(C)[C@@H](C(=O)N[C@H](C(=O)O)[C@@H](C)CC)NC(=O)[C@H]([C@@H](C)CC)NC(=O)[C@@H]2C[C@@H]3CCCC[C@@H]3N2C(=O)[C@@H]2CCCN2C(=O)[C@H](CC(C)C)NC(=O)[C@H](CO)NC(=O)[C@H](CCCNC(=N)N)NC(=O)[C@H](CO)NC1=O) [Example 368: IC+SRSLP-(Oic)-I-(Pen)+I-OH]

Reference: patent US20210246166A1 (Bayer, published 2021)
